Molecular target: Urokinase plasminogen activator surface receptor (uPAR) on metastatic KHOS osteosarcoma cells (human (endogenous in KHOS)) (UniProt Q03405)
Chain of UniProt Q03405 (Q03405 other isoform, or with tags, fused parts or gaps): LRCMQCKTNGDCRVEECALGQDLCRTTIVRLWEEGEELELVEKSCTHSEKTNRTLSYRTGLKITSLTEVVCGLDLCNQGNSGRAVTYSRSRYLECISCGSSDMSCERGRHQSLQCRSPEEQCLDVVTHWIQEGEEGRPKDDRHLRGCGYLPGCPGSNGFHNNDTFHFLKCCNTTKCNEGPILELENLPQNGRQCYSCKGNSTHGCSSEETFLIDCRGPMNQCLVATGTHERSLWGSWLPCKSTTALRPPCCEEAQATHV

- increase in migration of metastatic KHOS cells over basal level (Transwell, 24 h) with 0.5 and 1.0 ug/mL rh-uPA: 166%
Substance: recombinant human urokinase plasminogen activator (rh-uPA), high molecular weight form
